This note sets out measurements from PMC6386767, “Characterization of recombinant fructose-1,6-bisphosphatase gene mutations: evidence of inhibition/activation of FBPase protein by gene mutation” (Bioscience Reports, 2019).

Substrate in the series: O=C(COP(=O)(O)O)[C@@H](O)[C@H](O)[C@H](O)COP(=O)(O)O
The series is described as follows: purified protein, by the assay type. The following applies: apparent Km for substrate FBP, pH 7.5, 37.0 °C.

Setting [1] is: other: enzyme M177A_2 (second clone).

B1: pig kidney FBPase L73A (Sus scrofa; L74A) (protein)
chain: MTDQAAFDTNIVTLTRFVMEEGRKARGTGEMTQLLNSLCTAVKAISTAVRKAGIAHLYGIAGSTNVTGDQVKKADVLSNDLVINVLKSSFATCVLVSEEDKNAIIVEPEKRGKYVVCFDPLDGSSNIDCLVSIGTIFGIYRKNSTDEPSEKDALQPGRNLVAAGYALYGSATMLVLAMVNGVNCFMLDPAIGEFILVDRDVKIKKKGSIYSINEGYAKEFDPAITEYIQRKKFPPDNSAPYGARYVGSMVADVHRTLVYGGIFMYPANKKSPKGKLRLLYECNPMAYVMEKAGGLATTGKEAVLDIVPTDIHQRAPIILGSPEDVTELLEIYQKHAAK
The Vmax is the rate approached at saturating substrate. Broadly, the kcat is the number of substrate molecules converted per active site and unit of time at saturation. Broadly, the kcat/Km is the turnover number divided by the Michaelis constant. Consider B1, for which, for the setting “other: enzyme L73A”, the Km is 5.10 (± 0.3) µM, the Vmax is 50.5 µM/min, the kcat was 22.5 s⁻¹ and the kcat/Km is 4.41e+06 M⁻¹ s⁻¹.

B2: pig kidney FBPase M248D (Sus scrofa; M249D) (protein)
chain: MTDQAAFDTNIVTLTRFVMEEGRKARGTGEMTQLLNSLCTAVKAISTAVRKAGIAHLYGIAGSTNVTGDQVKKLDVLSNDLVINVLKSSFATCVLVSEEDKNAIIVEPEKRGKYVVCFDPLDGSSNIDCLVSIGTIFGIYRKNSTDEPSEKDALQPGRNLVAAGYALYGSATMLVLAMVNGVNCFMLDPAIGEFILVDRDVKIKKKGSIYSINEGYAKEFDPAITEYIQRKKFPPDNSAPYGARYVGSDVADVHRTLVYGGIFMYPANKKSPKGKLRLLYECNPMAYVMEKAGGLATTGKEAVLDIVPTDIHQRAPIILGSPEDVTELLEIYQKHAAK
On to B2, for which, where the note is “other: enzyme M248D”, the Km is 1.25 (± 0.4) µM, the Vmax was determined as 62.2 µM/min, the kcat turned out to be 30.5 s⁻¹ and the kcat/Km is 2.44e+07 M⁻¹ s⁻¹.

B3: pig kidney FBPase M177A (Sus scrofa; M178A) (protein)
chain: MTDQAAFDTNIVTLTRFVMEEGRKARGTGEMTQLLNSLCTAVKAISTAVRKAGIAHLYGIAGSTNVTGDQVKKLDVLSNDLVINVLKSSFATCVLVSEEDKNAIIVEPEKRGKYVVCFDPLDGSSNIDCLVSIGTIFGIYRKNSTDEPSEKDALQPGRNLVAAGYALYGSATMLVLAAVNGVNCFMLDPAIGEFILVDRDVKIKKKGSIYSINEGYAKEFDPAITEYIQRKKFPPDNSAPYGARYVGSMVADVHRTLVYGGIFMYPANKKSPKGKLRLLYECNPMAYVMEKAGGLATTGKEAVLDIVPTDIHQRAPIILGSPEDVTELLEIYQKHAAK
Turning to B3, where the note is “other: enzyme M177A_1”, the Km is listed as 4.20 (± 0.6) µM, the Vmax was determined as 26.1 µM/min, the kcat is 12.8 s⁻¹ and the kcat/Km was determined as 3.1e+06 M⁻¹ s⁻¹. For the same protein, under setting [1], the Km was 4.80 (± 0.5) µM, the Vmax was determined as 23.4 µM/min, the kcat amounted to 11.5 s⁻¹ and the kcat/Km amounted to 2.4e+06 M⁻¹ s⁻¹.

B4: pig kidney FBPase L56A (Sus scrofa; L57A) (protein)
chain: MTDQAAFDTNIVTLTRFVMEEGRKARGTGEMTQLLNSLCTAVKAISTAVRKAGIAHAYGIAGSTNVTGDQVKKLDVLSNDLVINVLKSSFATCVLVSEEDKNAIIVEPEKRGKYVVCFDPLDGSSNIDCLVSIGTIFGIYRKNSTDEPSEKDALQPGRNLVAAGYALYGSATMLVLAMVNGVNCFMLDPAIGEFILVDRDVKIKKKGSIYSINEGYAKEFDPAITEYIQRKKFPPDNSAPYGARYVGSMVADVHRTLVYGGIFMYPANKKSPKGKLRLLYECNPMAYVMEKAGGLATTGKEAVLDIVPTDIHQRAPIILGSPEDVTELLEIYQKHAAK
Regarding B4, under “other: enzyme L56A”, the Km was 5.20 (± 0.2) µM, the maximal velocity (Vmax) stood at 52.3 µM/min, the kcat is 25.6 s⁻¹ and the kcat/Km was 4.9e+06 M⁻¹ s⁻¹.

B5: pig kidney FBPase WT (Sus scrofa) (protein)
chain: MTDQAAFDTNIVTLTRFVMEEGRKARGTGEMTQLLNSLCTAVKAISTAVRKAGIAHLYGIAGSTNVTGDQVKKLDVLSNDLVINVLKSSFATCVLVSEEDKNAIIVEPEKRGKYVVCFDPLDGSSNIDCLVSIGTIFGIYRKNSTDEPSEKDALQPGRNLVAAGYALYGSATMLVLAMVNGVNCFMLDPAIGEFILVDRDVKIKKKGSIYSINEGYAKEFDPAITEYIQRKKFPPDNSAPYGARYVGSMVADVHRTLVYGGIFMYPANKKSPKGKLRLLYECNPMAYVMEKAGGLATTGKEAVLDIVPTDIHQRAPIILGSPEDVTELLEIYQKHAAK
Take B5: under “other: enzyme WT”, the Km is given as 4.80 (± 0.5) µM, the Vmax amounted to 41.8 µM/min, the kcat turned out to be 20.5 s⁻¹ and the kcat/Km is 4.3e+06 M⁻¹ s⁻¹.

B6: pig kidney FBPase Y113A (Sus scrofa; Y114A) (protein)
chain: MTDQAAFDTNIVTLTRFVMEEGRKARGTGEMTQLLNSLCTAVKAISTAVRKAGIAHLYGIAGSTNVTGDQVKKLDVLSNDLVINVLKSSFATCVLVSEEDKNAIIVEPEKRGKAVVCFDPLDGSSNIDCLVSIGTIFGIYRKNSTDEPSEKDALQPGRNLVAAGYALYGSATMLVLAMVNGVNCFMLDPAIGEFILVDRDVKIKKKGSIYSINEGYAKEFDPAITEYIQRKKFPPDNSAPYGARYVGSMVADVHRTLVYGGIFMYPANKKSPKGKLRLLYECNPMAYVMEKAGGLATTGKEAVLDIVPTDIHQRAPIILGSPEDVTELLEIYQKHAAK
B6: for the setting “other: enzyme Y113A”, the Km is 2.50 (± 0.3) µM, the Vmax amounted to 55.5 µM/min, the kcat is 27.2 s⁻¹ and the kcat/Km was 1.09e+07 M⁻¹ s⁻¹.

B7: pig kidney FBPase K112A (Sus scrofa; K113A) (protein)
chain: MTDQAAFDTNIVTLTRFVMEEGRKARGTGEMTQLLNSLCTAVKAISTAVRKAGIAHLYGIAGSTNVTGDQVKKLDVLSNDLVINVLKSSFATCVLVSEEDKNAIIVEPEKRGAYVVCFDPLDGSSNIDCLVSIGTIFGIYRKNSTDEPSEKDALQPGRNLVAAGYALYGSATMLVLAMVNGVNCFMLDPAIGEFILVDRDVKIKKKGSIYSINEGYAKEFDPAITEYIQRKKFPPDNSAPYGARYVGSMVADVHRTLVYGGIFMYPANKKSPKGKLRLLYECNPMAYVMEKAGGLATTGKEAVLDIVPTDIHQRAPIILGSPEDVTELLEIYQKHAAK
As to B7, for the setting “other: enzyme K112A”, the Km is reported as 3.25 (± 0.2) µM, the Vmax came to 54.7 µM/min, the kcat was found to be 26.8 s⁻¹ and the kcat/Km is 8.25e+06 M⁻¹ s⁻¹.

B8: pig kidney FBPase Y164A (Sus scrofa; Y165A) (protein)
chain: MTDQAAFDTNIVTLTRFVMEEGRKARGTGEMTQLLNSLCTAVKAISTAVRKAGIAHLYGIAGSTNVTGDQVKKLDVLSNDLVINVLKSSFATCVLVSEEDKNAIIVEPEKRGKYVVCFDPLDGSSNIDCLVSIGTIFGIYRKNSTDEPSEKDALQPGRNLVAAGAALYGSATMLVLAMVNGVNCFMLDPAIGEFILVDRDVKIKKKGSIYSINEGYAKEFDPAITEYIQRKKFPPDNSAPYGARYVGSMVADVHRTLVYGGIFMYPANKKSPKGKLRLLYECNPMAYVMEKAGGLATTGKEAVLDIVPTDIHQRAPIILGSPEDVTELLEIYQKHAAK
With B8, under “other: enzyme Y164A”, the Km is given as 5.30 (± 0.6) µM, the Vmax was 27.5 µM/min, the kcat is 13.5 s⁻¹ and the kcat/Km is 2.6e+06 M⁻¹ s⁻¹.
